This data set is described as follows: soluble on expression in E. coli; label from the status in PepcDB or PDB records.
With “MGGGEVKMMSLLEEMKGIYSKKGGKVKPFEKFEGELKEGYRFEYEKKLCEIDVAMFGLISGDLNPVHFDEDFASKTRFGGRVVHGMLTTSLVSAAVARLPGTVVLLEQSFRYTSPVRIGDVVRVEGVVSGVEKNRYTIDVKCYTGDKVVAEGVVKVLIW”, the “soluble on expression in E. coli” value was “soluble”. Turning to “MVGGSLSPAFTIDEATSYINAVKEAFGADQPAKYREFLDIMLDLRANRVDLATVVPRMRELLKDHVNLLLRFNAFLPAEAKETFHDVRSYIYSLKESFRDEPAKYAQFLEILNDYSARRVDAPSAVARMTELMKDHRNLVLGFSVLLSTGDTKTTPLEAEPDNNKRIRVANFISKLKARFQGNDGHVYESFLEILTMYQQGNKSVNDLYQEVVALLQGHEDLVMEFSNVFKRTTGPSGSKSARDR”, the “soluble on expression in E. coli” value is on record as “soluble”.

For “GSHSLRYFYTAVSRPGLGEPWFIIVGYVDDMQVLRFSSKEETPRMAPWLEQEEADDWEQQTHIVTIQGQLSERNLMTLVHFYNKSMDDSHTLQWLQDCDVEPDRHLCLWYNQLAYDSEDLPTLSENPSSCTVGNSTVPQISQHLEGHCSDVLQKYLEKGKERLLRSDPPKAHVTRHPRPEGDVTLRCWALGFYPADITLTWQKDGEELTQDVEFVETRPAGDGTFQKWAAVVVPLGKVQSYTCHVDHEGLPEPLTLRWEP”, the “soluble on expression in E. coli” value is “soluble”. The value for “SLSETLYTGISQLATPRPGPQRGAAMGDLHIIEDAALLVRGGVIQWVGPRAAAPTATHVHDLGGRAVVPGLVDPHTHAVWAGDRLSDWEAKLQGATYEEILARGGGIRSTMRATAAADVAELVALARPRLASLRASGATTTEVKSGYGLDFDAELRMLRAVRELQAEFELRPTLLIHVPPQEGRAEYVVGVCAELIPQVAREGLAEALDVFCEKEAFSVEETRTMFAAAQAHGLRVKLHADQFHAIGGTELACEVGALSVDHLEASGAAQIAALAASETVATILPGVTLHLGLPAAPGRQLIDSGAIVAIGTDLNPGSSPLFSTQLALALAVRLCLLTPAEALSACTVNAAYALGLSDRGSLSAGQRADFLVLNGQDWREVAYTLGGNAVAEVYLAGAQL” was “soluble”; that for “MGSDKIHHHHHHMRIALVTNTFLPLTGGGEFVVHHLGNQWSMQGHDVCVFNSLTAEVAHPEALYKVMRYKIMRGATRFGYHRFPWVNVSTRSLNRQINYFNPDFVSGHFSIPVALYLDNLKPKRIWSITSHGSDIVRNDVNSQRDQYDIDNKLANSLNNASSVIAISNSAKANLLDIGVKPSLIRVIPNGVELNRFKTKANTNIREMFNIPEHKKLVLTVGRNSLVKNLGLGINAVAEIAKSRSDIHYLIVGGGTSQLNETIINRGLRDTVTTCENLAGESLVAAYQQSDIFLSTSNYECCPLVILEAMASGLPIVATQVAGNVDLIDNEVNGLLVGRNNHMHIVNAITMLIADKRLCHSISTTNYDKVSDYSWDTVSRSYLELLQ” was “not soluble”.

On to “MSLTETTDLYRMSSSLRVVALAETLQRARAFASRLGIIRVTDTTRLDCIGIPVFASIRPTALPGSLCVNAGKGLRPEEARVGAYMEAIEFAMAEYGRSAVDYVMATPRDVLDGRSRPEAILDFCPVFGAQITLDDPMPCVEAEELLSSTRCLVPAELVYVPAPAVEGVQRHFGSSSNGLCSGNSVWEASVHGLAEVIERDIQSFCFLHDTSVLVDIASLPPQPAALARQIGEAGFTLRLRYVENIFELPYFAAYVMEPDPVDAVYICGGFGCHPFKEIAAVRAICEAVQGRLSFIHGGRDDLIERHRLLAQMNGEQELAFSRKLAAKVSRPEGMIGFEAIGDRSGEVCDLSSAWEVLVAAIRKVGIAHVCRVVFTQPHDPVQVLKLIVPRLEMFDRSTRRIGPRLRDHARFHEGHHHHHH”, for which the “soluble on expression in E. coli” value is “not soluble”. The value for “EAEAISCGSPPPILNGRISYYSTPIAVGTVIRYSCSGTFRLIGEKSLLCITKDKVDGTWDKPAPKCQYFNKYSSCPEPIVPGGYKIRGSTPYRHGDSVTFACKTNFSMNGNKSVWCQANNMWGPTRLPTCVSVFPLEQKLIS” was “soluble”; that for “GPGSMSFPKEWTDTWNLFDDRRSGSVTHSDVKHIIRSLGRRYTEAEFNELLHDIPDPIPYQSFVEIMQKPYNGPTEDDLRTALRAFDGNDSGQLKLSELITLLTSLGEKMPEAEVKQLLSEVHTNEDGRVNIDDLARFLCTPLPTTQPDIAELQKQLAGIS” was “soluble”; that for “MGVFRTRFTETFGVEHPIMQGGMQWVGRAEMAAAVANAGGLATLSALTQPSPEALAAEIARCRELTDRPFGVNLTLLPTQKPVPYAEYRAAIIEAGIRVVETAGNDPGEHIAEFRRHGVKVIHKCTAVRHALKAERLGVDAVSIDGFECAGHPGEDDIPGLVLLPAAANRLRVPIIASGGFADGRGLVAALALGADAINMGTRFLATRECPIHPAVKAAIRAADERSTDLIMRSLRNTARVARNAISQEVLAIEARGGAGYADIAALVSGQRGRQVYQQGDTDLGIWSAGMVQGLIDDEPACAELLRDIVEQARQLVRQRLEGMLAGV” was “soluble”. In the case of “MTARVIALDLDGTLLTPHKTLLPSSLEALSRAKEAGFQLIIVTGRHHVAIHPFYQALALETPAICCNGTYLYDYQAKTVLDADPMPVDKALQLIDLLDEHQIHGLMYVDDAMLYEHPTGHVVRTSRWAQTLPPEQRPTFTQVSSLAQAARDVNAVWKFALTDEDIPRLQRFGQHVEQALGLECEWSWHDQVDIARKGNSKGKRLTQWIEAQGGSMKNVIAFGDNYNDISMLEAAGTGVAMGNADEAVKARADVVIGDNTTDSIAKFIYTHLL”, the “soluble on expression in E. coli” value is recorded as “not soluble”. Take “METEIKRTSTKDIIAYLTEKFPECFSIKGPVKPLKIGIFQDLAEKLDDDETVSKTRLRQALRHYTSSWRYLKVIKVGNSRVDVDGKDVAEIDEDQAAYASKTLKESQEKFGNKKATDNDAKKPYKGKQGSTEAANNKPADKKRESTKFKTVKSTPKKTVKKEVEPLKSVESTTINVGSKVRVQLGNSPMKATITEISGKDISVQLDSGMVIKTQLQNIYL”: the “soluble on expression in E. coli” value is “not soluble”. With “MSVLDALWEDRDVRFDLSAQQMKTRPGEVLIDCLDSIEDTKGNNGDRGRLLVTNLRILWHSLALSRVNVSVGYNCILNITTRTANSKLRGQTEALYILTKCNSTRFEFIFTNLVPGSPRLFTSVMAVHRAYETSKMYRDFKLRSALIQNKQLRLLPQEHVYDKINGVWNLSSDQGNLGTFFITNVRIVWHANMNDSFNVSIPYLQIRSIKIRDSKFGLALVIESSQQSGGYVLGFKIDPVEKLQESVKEINSLHKVYSASPIFGVDYEMEEKPQPLEALTVEQIQDDVEIDSDGHTDAFVAYFADGNKQQDREPVFSEELGLAIEKLKDGFTLQGLWEVMS”, the “soluble on expression in E. coli” value is reported as “soluble”.

Consider “MDRLRFDHRVITENGNKQPLVMVINLSSISMAMMSYDFNSKPLLIFWETTKACGLKCEHCRASAILDALPGEMTFDQSINFLSHIKEFGKPYPIVILTGGDMLRKHRIWDIMDYLRSQEIPFSVSPAVTDLLTHEAILKFKEFGVSSVSISLDGMREVHEKVRGVAGVYDDTVKAIEDLISTGISMQINTVVMRSTVHDLPHVLKLIIDKGVKVWEVFFLIKTGRGIDREDLSPEEYENVNKFLLFATGYGIRIRTVESPIYRRITMQYGKNGLIKGGRLFDELREETVSLIGNPSKEYASSVIPTRDGFGIIFVGHDGEVYPSGFLPYSVGNVKDRSIVDIYRNSDLLNSIRNPDNLHGKCGLCEYRKVCGGSRARAFAYTGDPFGTDPSCIYEPSAVPE”, for which the “soluble on expression in E. coli” value is listed as “not soluble”.

As for “MDKVIFYSNIRNLIFKKCSIQFLIINDTVAHKEQVAMREMNQLVNTEDSAWPIIQNWLKDATNHTELLPVNKDLAETALYQLQVTTKSPMGALVYGSGGLLIDNGLEHHHHHH”, the “soluble on expression in E. coli” value is “not soluble”. “MGSDKIHHHHHHMEVFMITKRPIYNQQLKCVAFEILSCRNVMLNEELTRQLYDLIYHTDTQLPLFVPFSLKKLLEQFETPINNPIILKLSADEIESVYSLTELQDSLFSIALLINTPQQLAWLNFAEYIGLTEQLMSKSDVTKVVQYSKAKNRKIIAYDLNQHVNFEKCKAMTMDYYCGDFLLNSIAEEGTEIAANKLNVLQLIQELQKEDCDLNEITHIIQADPLLSYQLLKLVNSVGFSSGPSIESIDQAVARLGIINLKKWVMLFSMKNISDKPIEVLESGLIRAHMAEELAKKSSNIFSQSAYTAGLLSILDCLLNKPMPALVEQITLAEEIKDALTNKSGPLGDLLSLVIAYEEGHWEEVTQLNINGIDLSQLYIDSLALVSQGTKIMSN”: the “soluble on expression in E. coli” value is “not soluble”. Consider “MSLTNKMIYDQASGLRRLTQPSVTKVISVTGGKGGVGKSNVTLGMAICMAKQGKKVMVLDADLGLANVDVMLGIRPKRNLGHVLAGECELKDAIVEGPHGIRIIPATSGTQSMTELSHAQHVGLIRAFGTLEDEMDILLIDTAAGISDMVVSFSRAAQDVVVVVCDEPTSITDAYALIKLLSKEHQVQRFKIVANMVRSYREGRELFAKLTLVTERFLNVSLELVACIPLDDNVRQAVKRQKIVVDAYPRSPAALAISSLANKALTWPIPRTPSGHLEFFVERLLNRSEGHHHHHH”, for which the “soluble on expression in E. coli” value is listed as “soluble”. Take “MTRPNDEGDVSSLAYKYETIADSLRQDIKSGKYTPGELMPDQNKLAETFDTTRITIHKAIQLLIIEGMVYSKRGAGTFVRKDFGLTERRQETLVDKPLGTTQTNAGKKVTSKVLELQARLPTKREAEQLLIDEMDPVYVIRRTRYVDGKVWAYEHTIMPTSIVTLTKQVLEGSVYGYLEQHSGKKIAGSHRIISAARVTADDVAAMGATLNDPVLVINQISYMDDGQPFEVSESHFPYETSTVVADVQIH”: the “soluble on expression in E. coli” value is listed as “not soluble”.

On to “MTTDLITVKQVTKTYGSKNKEIAALKDISLAIPKGTTLGIIGESGSGKTTLGKLIAGIESPTSGEIDYNGQVVHKLKAAHKRDFLQKVQFIFQDSTAALNPRWKVRDSVTEGYISFGLGDKGLKDKVAGDALERVGLDRRYINRYPHEFSGGQRQRIAIARALLCEPEVLILDEPISALDVSLQIQIVHLLQKIQREQGYTYLFIAHDLPMVHYLCEKVAVLYKGELVEFGNTDEVFRNPQHSYTKTLLASTPKISG”, for which the “soluble on expression in E. coli” value is “not soluble”. On to “MNDRARELASRLIRNFNEASLEHEVREPLYESAAARLGTGTVAHKLGASVDVVAPGKRSCPYHFHHAQEEMFVIIEGEGSLRVAGEMLPIKTGDVLFIPAGPEYPHQIINTSQAPLKYLSISTRETPEVCEYPDSGKYQAMVSANGARVFTANQRTTENVDYWDGEPLEHHHHHH”, for which the “soluble on expression in E. coli” value is listed as “soluble”. With “MPEEYIMSSKACIYVLGGAANTAALFDFDGVYILDGGFAEKNPGFVAHVRDVSAVLLAAPTLGNLGTTSALLEQGKPLPVFTNTKPFKTAKPGSSGEIAKAIQEANSKILSVAPPLFNPKYPANIIYQSAAKGVLSLYILAGDVKDAEVITKALAGGNEAEVEKAAAEHGTIGVLLWRPAMTDQSVVRVLISGTSSLSRIQQSLDKAAKSLPFLNVPTVKSKDALSDIPAPAVPRPVAGKPSARPATTTGTATRPTRPAVPAASAPRALTSRAPAGPSRPTTTRNAAPAPRTAVPSRATVLTKTAPASKAPTRAPVPARSAPAPPRGAPAKPAANTAKAEPIAQKKTVGKVQGTAPSKPAPAAPASAATSPAPAPEAPRRDPNNVTIVLDDSLSPEDFNQGSAPMDIVVIPPTPEPPRHEVAQATHPEESIIDAEDLAKAPLEVDDVANLADVEDEIPPPVDAFKKPEPHPEPNVSGGSEEDKIPEPVDAFKKPDPVELDDFDPLKPSHPEPSAPVVPSDHIIIATPDPELPDIVAAVPFVSPSPKGPNDGLVKLDDELEKIAPGFEEPLIPQAPRDDGTLAECSEEVSKLVEISMDTDNSAEVAADLAKAVGEVTQLSADLQNLGLDEKTDEYVRKLSNQMIEDATLPFTSALASSIVTSNGSETNGHGEQAHAAQNGGIDHQKEIPKHDLMQSRSSVIENGAAVQYEKTDPALDDVLNACAQESEKIDASHPDNLHMPAAPGSAAPAKPVKFARPYYFDVVTVPRNEKLETSVAADGLQEFISKVRSRNVILASKDISGEQLQAILCGKQTWCDSAHPCNVIPTHSSPMLLDFRQKNEEQFAANNLQFSIPVEKQRTTVSSDAGAIEYELARVDLL” the entry was “soluble”.

For the origin of these results see the DeepSol protein solubility set.
